{
  "source": "the supplement of paper PMC10567573",
  "experiment": "protein stability index of a GFP-peptide fusion (GPS, HEK-293T) (PSI 1-6); higher = more stable",
  "data": [
    {"protein": "AKQLFRKLNEQSPTRCTLEAGAMT", "values": [
      {"measurement": "protein stability index", "setting": "parent: IOH3957_7, c terminus: a fixed tail appended", "value": 2.07}
    ]},
    {"protein": "YVERKNSLKKGSLVKNLKDTLGLG", "values": [
      {"measurement": "protein stability index", "setting": "parent: IOH4659_10, c terminus: a fixed tail appended", "value": 2.21}
    ]},
    {"protein": "QTSAFARQPRDELERVRVSCTIIF", "note": "[TMEM175 WT]", "values": [
      {"measurement": "protein stability index", "setting": "parent: IOH5167_61, c terminus: a fixed tail appended", "value": 2.28}
    ]},
    {"protein": "KALEILRKDFSELRSAGVEQLMYI", "values": [
      {"measurement": "protein stability index", "setting": "parent: IOH4655_39, c terminus: a fixed tail appended", "value": 2.56}
    ]},
    {"protein": "QMAKKAEAFQLYQEAAQLDMLLEK", "note": "[FLOT1 WT]", "values": [
      {"measurement": "protein stability index", "setting": "parent: IOH4826_57, c terminus: a fixed tail appended", "value": 1.75}
    ]},
    {"protein": "NKLLLSIIILLELAILGGLVYYKF", "values": [
      {"measurement": "protein stability index", "setting": "parent: IOH5143_35, c terminus: a fixed tail appended", "value": 2.46}
    ]},
    {"protein": "THTKEQILELVVLEQFVAILPKEL", "values": [
      {"measurement": "protein stability index", "setting": "parent: IOH4871_15, c terminus: a fixed tail appended", "value": 2.8}
    ]},
    {"protein": "SRHLNSQVKKTTTRWCHIVRDSDS", "values": [
      {"measurement": "protein stability index", "setting": "parent: IOH4271_53, c terminus: a fixed tail appended", "value": 2.05}
    ]},
    {"protein": "ANETLAEMEEELRYAPLSFRNPMM", "values": [
      {"measurement": "protein stability index", "setting": "parent: IOH5143_10, c terminus: a fixed tail appended", "value": 1.94}
    ]},
    {"protein": "RRQTSMTDFYHSKRRLIFSKRKP", "values": [
      {"measurement": "protein stability index", "setting": "parent: IOH5068_25, c terminus: native", "value": 2.54}
    ]},
    {"protein": "PCCSSSPEEPLNGESYESCCPTSR", "values": [
      {"measurement": "protein stability index", "setting": "parent: IOH5115_46, c terminus: a fixed tail appended", "value": 3.71}
    ]},
    {"protein": "EEEDLRRRLKYFFMSPCDKFRAKG", "note": "[MCOLN1 WT]", "values": [
      {"measurement": "protein stability index", "setting": "parent: IOH4733_7, c terminus: a fixed tail appended", "value": 2.28}
    ]},
    {"protein": "EAGGRFVAFSGEGQSLRKKGRKP", "note": "[UFD1L WT]", "values": [
      {"measurement": "protein stability index", "setting": "parent: IOH4744_50, c terminus: native", "value": 1.91}
    ]},
    {"protein": "FPKKLAFAYLEDLHSEFDEQHGKK", "values": [
      {"measurement": "protein stability index", "setting": "parent: IOH3957_14, c terminus: a fixed tail appended", "value": 2.61}
    ]},
    {"protein": "YTGPSSSGRFAGREWYYGNVTRHQ", "values": [
      {"measurement": "protein stability index", "setting": "parent: IOH4659_46, c terminus: a fixed tail appended", "value": 1.78}
    ]},
    {"protein": "FGEDYYGPSRSRHRRRSRERGPYR", "note": "[CLK3 WT]", "values": [
      {"measurement": "protein stability index", "setting": "parent: IOH4008_14, c terminus: a fixed tail appended", "value": 2.64}
    ]},
    {"protein": "HIFPASRWEPYDPEKKWDKYTIR", "values": [
      {"measurement": "protein stability index", "setting": "parent: IOH4655_56, c terminus: native", "value": 2.29}
    ]},
    {"protein": "LSKEYWDCLEGKKSKHAPRGTHLW", "values": [
      {"measurement": "protein stability index", "setting": "parent: IOH4879_43, c terminus: a fixed tail appended", "value": 2.74}
    ]},
    {"protein": "NIVEYLIQEQPGQEQVAGGEAQPG", "values": [
      {"measurement": "protein stability index", "setting": "parent: IOH5115_39, c terminus: a fixed tail appended", "value": 4.27}
    ]},
    {"protein": "YQSKGYNDDYYEESYFTTRTYGEP", "note": "[EMD WT]", "values": [
      {"measurement": "protein stability index", "setting": "parent: IOH4676_15, c terminus: a fixed tail appended", "value": 2.23}
    ]},
    {"protein": "RVKLISNKGTETDNDPSCVHPIIK", "values": [
      {"measurement": "protein stability index", "setting": "parent: IOH4271_36, c terminus: a fixed tail appended", "value": 4.06}
    ]},
    {"protein": "FVKDPQGRIIAVFKPKNEEPYGHL", "note": "[PI4K2A WT]", "values": [
      {"measurement": "protein stability index", "setting": "parent: IOH5080_24, c terminus: a fixed tail appended", "value": 1.76}
    ]},
    {"protein": "YGETCFPKGRFERKRNPSRKKQHI", "values": [
      {"measurement": "protein stability index", "setting": "parent: IOH4871_39, c terminus: a fixed tail appended", "value": 2.65}
    ]},
    {"protein": "KKREKQREQMEQMKQRIAEENIMK", "values": [
      {"measurement": "protein stability index", "setting": "parent: IOH4655_4, c terminus: a fixed tail appended", "value": 4.67}
    ]},
    {"protein": "AAGGVPGGGSNNGKTPVCHQCHKV", "note": "[PDLIM7 WT]", "values": [
      {"measurement": "protein stability index", "setting": "parent: IOH4706_45, c terminus: a fixed tail appended", "value": 2.61}
    ]},
    {"protein": "GRKRRQTSMTDFYHSKRRLIFSKR", "values": [
      {"measurement": "protein stability index", "setting": "parent: IOH5068_24, c terminus: a fixed tail appended", "value": 3.14}
    ]},
    {"protein": "RLVYKFGKNSSGWKEEEVLQSRN", "values": [
      {"measurement": "protein stability index", "setting": "parent: IOH4879_62, c terminus: native", "value": 2.04}
    ]}
  ]
}
